Experimental data: patent US5831051, “Receptor for peptide hormones involved in energy homeostasis, and method and compositions for use thereof” (The Rockefeller University, dated 1998)
Where no end group is shown, it is not given here.

Experiments:
[1] = target: T1, recombinant human PACAP/VIP R-2 receptor (human); test: competitive displacement of 125I-VIP on intact CHL cells expressing the receptor
T1 chain: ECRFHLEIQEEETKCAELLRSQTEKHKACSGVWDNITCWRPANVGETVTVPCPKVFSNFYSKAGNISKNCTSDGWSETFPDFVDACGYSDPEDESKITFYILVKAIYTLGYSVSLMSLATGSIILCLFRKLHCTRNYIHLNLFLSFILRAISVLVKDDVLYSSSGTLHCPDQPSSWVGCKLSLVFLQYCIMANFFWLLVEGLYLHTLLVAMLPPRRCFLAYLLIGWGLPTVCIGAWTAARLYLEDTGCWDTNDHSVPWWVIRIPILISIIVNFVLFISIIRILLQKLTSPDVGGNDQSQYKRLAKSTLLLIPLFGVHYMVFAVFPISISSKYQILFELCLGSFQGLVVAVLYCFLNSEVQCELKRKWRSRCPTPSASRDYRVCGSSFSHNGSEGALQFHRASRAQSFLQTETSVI
Description for binding result: (§1) Each peptide concentration prepared in Hank's balanced salt solution containing 20 mM HEPES, pH 7.4, 0.5% BSA and 0.1 mM phenylmethylsulfonyl-fluoride (PMSF) was added in triplicates to intact cells. Following the incubation, the cells were washed two times with ice-cold PBS, lysed with 1N NaOH, and radioactivity measured in gamma counter.

[2] = target: T1, recombinant human PACAP/VIP R-2 receptor; test: competitive displacement of 125I-VIP (44 pM) on intact CHL cells expressing the receptor
Description: as §1
(§2) To further confirm the identity of the receptor, the cDNA was expressed in a chinese hamster lung (CHL) cell line.

[3] = target: T1, recombinant human PACAP/VIP R-2 receptor; test: competitive displacement of 125I-PACAP-27 (44 pM) on intact CHL cells expressing the receptor
Description: as §1

[4] = target: T1, recombinant human PACAP/VIP R-2 receptor; test: competitive displacement of 125I-VIP on intact CHL cells expressing the receptor; complete displacement not obtainable
Description: as §1

[5] = target: T1, recombinant human PACAP/VIP R-2 receptor; test: competitive displacement of 125I-VIP (44 pM) on intact CHL cells expressing the receptor; complete displacement not obtainable
Description: as §1, §2

Molecule | IC50 [3] [nM] | binding result [1] | further results
secretin (ligand) |  |  | concentration at which 125I-VIP binding was displaced [1]: 3.8 µM
HSDGIFTDSYSRYRKQMAVKKYLAAVLGKRYKQRVKNK (ligand, ends and bridges not checked) [PACAP-38 (pituitary adenylate cyclase activating polypeptide, 38-amino acid peptide)] | 4.1 |  | IC50 [2]: 1.8 nM
HSDGIFTDSYSRYRKQMAVKKYLAAVL (ligand, ends and bridges not checked) [PACAP-27 (pituitary adenylate cyclase activating polypeptide, 27-amino acid peptide)] |  |  | IC50 [4]: ~37 nM
HAEGTFTSDVSSYLEGQAAKEFIAWLVKGR (ligand) [glucagon-like peptide-I (GLP-1)] |  | no binding | 
HSDAVFTDNYTRLRKQMAVKKYLNSILN (ligand) [vasoactive intestinal polypeptide (VIP)] | ~9 |  | IC50 [5]: ~5.8 nM
HADGSFSDEMNTILDNLAARDFINWLIQTKITD (ligand) [glucagon-like peptide-II (GLP-II)] |  | no binding | 
